Results: the supplement of paper PMC12764529
± gives the half width of the 95% confidence interval.

Columns and labels:
[1] = folding stability dG unfold from chymotrypsin proteolysis; higher = more stable
How it was run: (§1)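 Digests were run with trypsin and chymotrypsin at 11 concentrations in threefold dilutions, plus a no-protease condition, on designed mini-proteins in a PA-tagged cDNA display construct. The mini-proteins were under 80 residues, had no cysteine, and were kept only when AlphaFold2 dimer inter-PAE was above 15. After sequencing, Bayesian fitting of the counts gave K50, from which unfolding free energy was derived against a sequence-predicted unfolded-state K50 and a shared folded-state K50, per protease or combined.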

[2] = folding stability dG unfold from trypsin proteolysis; higher = more stable
How it was run: as §1

[3] = folding stability dG unfold (combined trypsin and chymotrypsin); higher = more stable
How it was run: as §1

| Sequence | folding stability dG unfold [1] | folding stability dG unfold [2] | folding stability dG unfold [3] |
| --- | --- | --- | --- |
| SAGGSAGGSAFIRAEYKLPENKVLEIEIPVPESVLKKMSIEEVKELFKKLGLPDDVKIEFYDESAGGSAGGS [r12_742_TrMRF] | 1.78 ± 0.15 kcal/mol | 1.43 ± 0.041 kcal/mol | 1.66 ± 0.098 kcal/mol |
| SAGGSAGGSAGGSSSSTVPLPDDTTLTVHTGSSSYTVTTTSPDGTSTTTTVSPATVAAALSAGGSAGGSAGG [r11_1068_JUSTAS] | -0.0339 ± 0.1 kcal/mol | 0.255 ± 0.022 kcal/mol | 0.188 ± 0.077 kcal/mol |
| SAGGSAGGSAGKKKKKPKKKYVFIVIKINLSEEELKKLAEELGIDKVFKNENGYAVLVVKSAGGSAGGSAGG [r11_64_TrROS_Hall] | 3.56 ± 0.059 kcal/mol | 2.19 ± 0.12 kcal/mol | 3.15 ± 0.13 kcal/mol |
| SAGGSAGGSLNPEKPSVRIRIKVQKPDGSYEEIDIEVPFQDIPDVIDELKKKGYKILSIELEPSAGGSAGGS [r12_986_TrMRF] | 4.31 ± 0.08 kcal/mol | 4.45 ± 0.18 kcal/mol | 4.37 ± 0.18 kcal/mol |
| SASSSSSSYNVTIDPATGTVTVTNPDGSTTTVPPGSTLTVTSTSSDGGSALGSSTPSTSTTTIPVPAGTSAG [r14_366_JUSTAS] | 0.699 ± 0.091 kcal/mol | 1.05 ± 0.05 kcal/mol | 0.919 ± 0.071 kcal/mol |
| SAGGSAGGMVYKIRDKETGKVYEVTIDEETNEITVYDVKTGKPVKTVNMTIEELKEAGYEVEPVSAGGSAGG [r6_831_TrROS_Hall] | 3.27 ± 0.034 kcal/mol | 3.61 ± 0.16 kcal/mol | 3.4 ± 0.2 kcal/mol |
| SAGGSAGGAERIKNLLEDYGFELKDVEMDEPGSTKIHITPDNPSLRKDIKDKLPPGNVDSITDTSAGGSAGG [r6_84_TrROS] | 1.33 ± 0.12 kcal/mol | -0.0811 ± 0.14 kcal/mol | 0.882 ± 0.26 kcal/mol |
| SAGGESYPFIGRNPETNALIEVTVTKLESGEYLVNATITNPNGETVEFPFTFPANSLTPESEIDVTITSAGG [r13_959_TrMRF] | 1.21 ± 0.074 kcal/mol | 1.65 ± 0.051 kcal/mol | 1.44 ± 0.054 kcal/mol |
| SAGGGLSPDTPVNYVVFVELPNGERRTFNVPGPAGRPEVAIAIAEKLREEGYEVKAIFPGEGVIVVGSAGGS [r8_497_TrMRF] | 3.117 ± 0.0089 kcal/mol | 2.88 ± 0.12 kcal/mol | 2.98 ± 0.08 kcal/mol |
| SAKVSHLEFSLPNSVVTPEDLLAALEKLGFPPSKIKKMEIVKVKDNSYVVKIYLENEDGSDSIITLHLPSAG [r14_30_TrMRF] | 2.39 ± 0.066 kcal/mol | 0.515 ± 0.078 kcal/mol | 1.78 ± 0.11 kcal/mol |
| SAGMKITISYDEAKGIATVTLYEERPVETPNGPVTLRRKVATVTIPYTSLEEAKKQAEEAAKALLEKLSSAG [r5_956_JUSTAS] | 5.036 ± 0.033 kcal/mol | 5.11 ± 0.14 kcal/mol | 5.06 ± 0.084 kcal/mol |
| SAGGIEELAKALGIEEVEVTSIDPETREVTVRVRVRGPDGEERTLTVKIRLEPAPPPVRTFSEEELKSSAGG [r13_608_TrROS_Hall] | 1.06 ± 0.04 kcal/mol | 1.78 ± 0.029 kcal/mol | 1.45 ± 0.087 kcal/mol |
| SAGGSAGGSAKKKKKKKKYKPKPVKIFKIKLKLKLEKTKDGLKLKIEEIEIEEIATLEKGLSAGGSAGGSAG [r3_397_TrROS_Hall] | 2.72 ± 0.1 kcal/mol | 1.88 ± 0.12 kcal/mol | 2.43 ± 0.44 kcal/mol |
| SAGGGYRAVAVFERPDGRREVVFIEFESEEEALREAEEIARRFGLRLKELRVYPVEPLPPVRPELAGSAGGS [r8_364_TrMRF] | 5.17 ± 0.083 kcal/mol | 3.49 ± 0.089 kcal/mol | 4.88 ± 0.09 kcal/mol |
| SAGGKYVMFPFDSPEDLKDLLPPGYPVEIHMMPPKGKHRTRTFTPDEIKLELPPGENFYFMIKVKPPDSAGG [r13_461_TrROS] | 1.94 ± 0.33 kcal/mol | 1.55 ± 0.16 kcal/mol | 1.74 ± 0.2 kcal/mol |
| SAGGSAGGSAGGIWITMRPDNPDEFIDALRKKGKIRIVEVEPKNGNVIMRVTLDGQPLTSAGGSAGGSAGGS [r10_695_TrROS] | 0.53 ± 0.11 kcal/mol | 0.0442 ± 0.14 kcal/mol | 0.368 ± 0.088 kcal/mol |
| SAGGSAGGSAGGAMAPDEPVERVEVTYKTGRLTFPGKPVLKKEKVVLKFTLTVTDPALLSAGGSAGGSAGGS [r10_745_JUSTAS] | -0.0228 ± 0.28 kcal/mol | -0.234 ± 0.33 kcal/mol | 0.0101 ± 0.15 kcal/mol |
| SAGGSAGGSFRIKEIEYKPPKGMIEVEIEFPNGRPIKIHINPDEGWDPIYFGGKPIFPIRIEPSAGGSAGGS [r12_789_TrROS] | 0.859 ± 0.13 kcal/mol | -0.206 ± 0.1 kcal/mol | 0.534 ± 0.11 kcal/mol |
| SAPMKIVKKTDNTLYIYDKKTKKIVKITINDGTITVEEITYDKKTKEKKVETKTIKLSEEQLKKLKKLLSAG [r14_245_TrROS_Hall] | 0.7 ± 0.24 kcal/mol | 1.54 ± 0.079 kcal/mol | 1.23 ± 0.14 kcal/mol |
| SAGSSMSVTIKVTIRSPTRTEEIEITVSPSESLEEAIKKVAEKLPPDYSITITFEGGETVTIPIPKELLSAG [r5_77_JUSTAS] | 1.15 ± 0.024 kcal/mol | 1.93 ± 0.1 kcal/mol | 1.58 ± 0.089 kcal/mol |
| SAGGSAGGSAGMKVAVLTIPENGKPVLVVELPDGGALAFDPDTDAVFLLDDDKIYYLGPASAGGSAGGSAGG [r17_476_TrMRF] | 1.52 ± 0.059 kcal/mol | 0.0117 ± 0.033 kcal/mol | 1.13 ± 0.075 kcal/mol |
